From patent US9752119B2, “Substantially pure human retinal progenitor, forebrain progenitor, and retinal pigment epithelium cell cultures and methods of making the same” (Wisconsin Alumni Research Foundation, priority 2009, dated 2017)

B1: Noggin: recombinant Noggin, inhibitor of BMP signaling (protein, UniProt Q13253 28-232, looked up)
Noggin: QHYLHIRPAPSDNLPLVDLIEHPDPIFDPKEKDLNETLLRSLLGGHYDPGFMATSPPEDRPGGGGGAAGGAEDLAELDQLLRQRPSGAMPSEIKGLEFSEGLAQGKKQRLSKKLRRKLQMWLWSQTFCPVLYAWNDLGSRFWPRYVKVGSCFSKRSCSVPEGMVCKPSKSVHLTVLRWRCQRRGGQRCGWIPIQYPIISECKCSC
B2: Dkk1: recombinant Dkk1, inhibitor of Wnt signaling (protein, UniProt O94907 32-266, looked up)
Dickkopf-related protein 1: TLNSVLNSNAIKNLPPPLGGAAGHPGSAVSAAPGILYPGGNKYQTIDNYQPYPCAEDEECGTDEYCASPTRGGDAGVQICLACRKRRKRCMRHAMCCPGNYCKNGICVSSDQNHFRGEIEETITESFGNDHSTLDGYSRRTTLSSKMYHTKGQEGSVCLRSSDCASGLCCARHFWSKICKPVLKEGQVCTKHRRKGSHGLEIFQRCYCGEGLSCRIQKDHHQASNSSRLHTCQRH
B3: Wnt3A: recombinant Wnt3a, added to differentiating human ESC (protein, UniProt P56704 19-352, looked up)
Protein Wnt-3a: SYPIWWSLAVGPQYSSLGSQPILCASIPGLVPKQLRFCRNYVEIMPSVAEGIKIGIQECQHQFRGRRWNCTTVHDSLAIFGPVLDKATRESAFVHAIASAGVAFAVTRSCAEGTAAICGCSSRHQGSPGKGWKWGGCSEDIEFGGMVSREFADARENRPDARSAMNRHNNEAGRQAIASHMHLKCKCHGLSGSCEVKTCWWSQPDFRAIGDFLKDKYDSASEMVVEKHRESRGWVETLRPRYTYFKVPTERDLVYYEASPNFCEPNPETGSFGTRDRTCNVSSHGIDGCDLLCCGRGHNARAERRREKCRCVFHWCCYVSCQECTRVYDVHTCK
B4: Activin: Activin-A added to vesicular neurosphere cultures to influence RPE fate (protein, UniProt P08476 311-426, looked up)
Inhibin beta A chain: GLECDGKVNICCKKQFFVSFKDIGWNDWIIAPSGYHANYCEGECPSHIAGTSGSSLSFHSTVINHYRMRGHSPFANLKSCCVPTKLRPMSMLYYDDGQNIIKKDIQNMIVEECGCS
modifications: Inhibin beta A chain
B5: BMP4: recombinant BMP4, added to differentiating human ESC (protein, UniProt P12644 293-408, looked up)
Bone morphogenetic protein 4: SPKHHSQRARKKNKNCRRHSLYVDFSDVGWNDWIVAPPGYQAFYCHGDCPFPLADHLNSTNHAIVQTLVNSVNSSIPKACCVPTELSAISMLYLDEYDKVVLKNYQEMVVEGCGCR

Experiments:
human ESC = assay: Eye field specification from differentiating human ESC: Pax6 and Rx gene expression (RT-PCR/qPCR) and neuroepithelial colony formation; type: cell-based; conditions: for appearance of neuroepithelial colonies / expression of Pax6 and Rx: Wnt3A and BMP4 added together (100 ng/ml) over the first 10 days of differentiation; for appearance of neuroepithelial colonies: morphology at day 10; for expression of Pax6 and Rx: qPCR
Protocol: (1) Making human ESC aggregates: Human ESC were grown on irradiated MEFs to approximately 80% confluence in a 6-well plate. Upon reaching 80% confluence, the human ESC medium was aspirated off and 1 ml of dispase (1 mg/ml, Gibco #17105-041) solution was added to each well. After 5 minutes, the cells were examined for curling of human ESC colony edges, indicative of the colonies beginning to lift off of the plate. If noticeable curling was evident, the dispase solution was aspirated off of the plate and replaced with 1 ml of DMEM/F12 per well. The human ESC colonies were mechanically lifted from the plate by pipetting a few times with a 10 ml pipette. When all colonies were detached, the cells were transferred to a 15 ml conical tube and allowed to settle by gravity. After the aggregates had settled (˜5 minutes), the supernatant was aspirated and replaced with 10 ml of Embryoid Body (EB) medium, which contained DMEM/F12 (1:1) (Gibco #11330-065), 20% knockout serum replacement (Gibco #10828-028), 0.1 mM β-mercaptoethanol, 1 mM L-glutamine (Gibco #25030-081) and 1% MEM nonessential amino acids (Gibco #11140-050). The pellet of cells was resuspended by repeated pipetting 2-3 times with a 10 ml pipette, just enough to separate the individual aggregates while minimizing their dissociation. Aggregates were approximately 400 μm in diameter. These aggregates were then transferred to a T25 flask and placed in the incubator. The next day, the aggregates formed floating, sphere-like structures. (If significant attachment of human ESC and/or residual MEF cells was observed, the unattached aggregates were transferred to a new flask.) These cells were fed with fresh EB medium every day for the first 4 days.
(2) Differentiating to anterior neuroepithelial fate: The aggregates were then collected by settling in a 15 ml conical tube and washed once with 10 ml of DMEM/F12. Upon resettlement of the aggregates, the supernatant was removed and the aggregates were re-suspended in 10 ml of Neural Induction Medium (NIM) and transferred to a new T25 flask. NIM included DMEM/F12 (1:1) (Gibco #11330-065), 1% N2 supplement (Gibco #17502-048), 1% MEM nonessential amino acids (Gibco #11140-050), and 2 μg/ml heparin (Sigma #H-3149). Two days later, a 6-well plate was coated with laminin (20 μg/ml diluted in DMEM) and the coated plate was left in the incubator overnight. By this time, aggregates had become brighter and acquired clearly defined edges. The next day, approximately 50 aggregates were plated in each well of a 6 well plate. An additional 2 ml of fresh NIM was added to each well. The cells were then placed in the incubator, making sure the cells were distributed evenly in the plate by gently shaking the plate back and forth as well as side-to-side a few times. Within the first couple of days (by a total of 9 days), most aggregates attached to the laminin-coated surface. […]
RT-PCR experiments were done as follows to check gene expression: Total RNA was isolated from cell cultures from various stages of differentiation using the RNAeasy® kit (Qiagen) and treated with DNAse I. Reverse transcription was performed with the Superscript III RT-PCR kit (Invitrogen). […] For quantitative RT-PCR (qPCR), reactions were performed with Sybr Green Supermix (Applied Biosystems) and the Opticon 2 DNA Engine and Opticon Monitor 2.02 software (MJ Research). […]

human ESC cultures = assay: Mitf and Chx10 gene expression (qPCR) in human ESC cultures treated during optic vesicle and optic cup stages; type: cell-based; conditions: SU5402 added days 16-40, measured at day 40
Protocol: The columnar rosette cells found in the center of these colonies were denser than those cells in the periphery, so they were easily dislodged by this pipetting technique, leaving the non-rosette cells attached to the plate. We took care not to break up the lifted colonies during this step. Detached colonies were collected in a 15 ml conical tube and spun in a centrifuge at 600 rpm for 1 minute to effectively pellet the detached colonies while leaving most single cells in suspension in the culture medium. The supernatant was then aspirated from the tube and the clusters were re-suspended in 10 ml of Retinal Differentiation Medium (RDM) and transferred to a new T25 flask. RDM included DMEM/F12 (3:1) supplemented with 2% B27. […] Within 3-5 days after detachment of the cells (19th-21st day of the differentiation), neurospheres readily adopted one of two major appearances. […]
RT-PCR experiments were done as follows to check gene expression: Total RNA was isolated from cell cultures from various stages of differentiation using the RNAeasy® kit (Qiagen) and treated with DNAse I. Reverse transcription was performed with the Superscript III RT-PCR kit (Invitrogen). […] For quantitative RT-PCR (qPCR), reactions were performed with Sybr Green Supermix (Applied Biosystems) and the Opticon 2 DNA Engine and Opticon Monitor 2.02 software (MJ Research). […] Quantitative RT-PCR primers were run for 40 cycles.

hiPSCs = assay: Neural/retinal specification of hiPSCs after addition of BMP and Wnt inhibitors (immunocytochemistry, FACS); type: cell-based, human; conditions: for expression of Pax6: recombinant Dkk1 and Noggin added together from 2-4 days of differentiation, immunocytochemistry; for expression of Chx10: treatment with Dkk1 and Noggin together, after 20 days of differentiation, FACS
Protocol: Immunocytochemistry was done as follows to check protein expression: human ESC aggregates or neurospheres were plated onto poly-ornithine- and laminin-coated coverslips overnight to allow for attachment, and then fixed with 4% paraformaldehyde. Cells were then permeabilized in 0.2% Triton X-100 for 10 minutes. For Mitf immunocytochemistry, cells were incubated in ice-cold 90% methanol for 10 minutes as an additional permeabilization step. Labeled cells were visualized with either Alexafluor 488- or Cy3-conjugated secondary antibodies, and nuclei were counterstained with either Hoechst or To-Pro-3 nuclear dyes. Images were obtained from a Nikon TE600 fluorescent microscope equipped with a SPOT camera and software or from z-stacks of cell clusters obtained on a Nikon Cl Laser Scanning Confocal microscope.
FACS analysis was done as follows to quantify the percentage of cells acquiring expression of Pax6 and Rx: Cells were dissociated with either trypsin or Accutase® (Chem icon), washed with a fluorescence-activated cell sorting (FACS) buffer (PBS, 0.1% sodium azide, and 2% donkey serum), and fixed with 0.1% paraformaldehyde for 10 minutes. Cells were then permeabilized with ice-cold 90% methanol for 20 minutes and incubated overnight in primary antibodies at a concentration of 1 μg of antibody per 1 million cells in FACS buffer. Antibody information is found in Table 2. Immunostaining was then completed with either donkey-anti-mouse or donkey-anti-rabbit Alexa 488 secondary antibodies for 2 hours, after which cells were washed with FACS buffer, and then sorted with a Becton Dickinson FACSCaliber. Data retrieved from the sorting was analyzed with CellQuest Pro software (Becton Dickinson).
To test this hypothesis, inhibitors of BMP signaling (Noggin or Dorsomorphin) and Wnt signaling (Dkk-1 or XAV-939) were added to cultures from days 2 to 4 of differentiation, a timeframe that was shown in Example 1 to be prior to the onset of neural specification based on Pax6 and Rax expression. […] This was further confirmed through immunocytochemistry, where cells treated with BMP and Wnt inhibitors were more likely to express the neural transcription factors Pax6 and Sox1 as well as eye field transcription factors Lhx2 and Six6.

[1] = test system: hiPSC-derived vesicular neurospheres; assay: RPE specification from hiPSC-derived vesicular neurospheres in the presence of Activin (bright field microscopy, qPCR); type: cell-based, human
Protocol: RT-PCR experiments were done as follows to check gene expression: Total RNA was isolated from cell cultures from various stages of differentiation using the RNAeasy® kit (Qiagen) and treated with DNAse I. Reverse transcription was performed with the Superscript III RT-PCR kit (Invitrogen). PCR was performed with GoTaq PCR master mix (Promega) and subsequent PCR products were run on 2% agarose gels. For quantitative RT-PCR (qPCR), reactions were performed with Sybr Green Supermix (Applied Biosystems) and the Opticon 2 DNA Engine and Opticon Monitor 2.02 software (MJ Research). All primer sets listed were run for 30 cycles at an annealing temperature of 60° C. unless otherwise noted. Quantitative RT-PCR primers were run for 40 cycles.
Activin signaling has previously been implicated in this cell fate determination and as such, we sought to determine if Activin could influence these cells to adopt an RPE fate. […] Based on this feature, these aggregates could be manually isolated to generate highly enriched populations of RPE. When plated onto a laminin-coated substrate and in the presence of the mitogens FGF2 and EGF, these cells were capable of proliferation and outgrowth from the aggregate (FIG. 18D). […] Further maturation of these treated cells confirms that Activin signaling plays a role in the acquisition of an RPE fate at the expense of the neural retina, as Activin-treated cultures expressed RPE-specific genes such as RPE65 at higher levels than the untreated cells, whereas untreated cells expressed higher levels of genes associated with the neural retina including Brn3A (FIG. 18E-F).

Molecule	expression of Pax6 (hiPSCs)	expression of Chx10 (hiPSCs)	appearance of neuroepithelial colonies (human ESC)	expression of Pax6 and Rx (human ESC)	also measured
Cc1c[nH]c(/C=C2\C(=O)Nc3ccccc32)c1CCC(=O)O [SU5402]					Pax6 and Rx expression (human ESC; 10 μM SU5402, day 10 of differentiation, RT-PCR): complete loss; increase in Mitf gene expression (human ESC cultures): 11.8 fold; reduction of Chx10 expression (human ESC cultures): 15.9 fold
B1	restored	increased			
B2	restored	increased			
B3			abolished	abolished	
B4					development of pigmented, RPE-like phenotype ([1]; Activin added upon isolation of vesicular neurospheres until a total of 40 days of differentiation): a subset of the neurospheres was capable of developing a pigmented phenotype; expression of neural retinal-associated genes ([1]; Activin-A treated versus untreated vesicular spheres, qPCR): lower levels; expression of RPE-specific genes such as RPE65 ([1]; Activin-treated versus untreated cultures, qPCR): higher levels
B5			abolished	abolished	
